In this assay the target is connexin-50 (native, sheep lens) (sheep) (UniProt P55917). Description: cryo-EM structure; native Cx46/50 intercellular channels from sheep lens in a pair of MSP1E1/DMPC nanodiscs; 20 mM HEPES pH 7.4, 150 mM NaCl; single-particle reconstruction with D6 symmetry, 1.90 Å (2.3 Å without symmetry); the two isoforms could not be told apart by image classification.

Turning to “connexin-46 (native, sheep lens) (from UniProt Q9TU17 1-413) (natural protein)”, the subunits in the intercellular channel (Cx46 and Cx50 together) turned out to be 12.

Values taken from article PMC7455559.
